Results as given in patent publication US8404644B2, “Agents with angiogenic and wound healing activity” (Meat & Livestock Australia Limited, priority 2007, dated 2013).

What was measured:
[1] = biological target: T1, elastase I (Sus scrofa, UniProt P00772); test: Elastase I inhibitory activity of crystallin fractions; assay type: biochemical
T1 construct: purchased Worthington Biochemical Corporation 2280
Protocol: The bovine crystallin fractions were tested for ability to inhibit elastase I activity.

[2] = test system: full thickness 12 mm wound; test: Wound healing assay (Example 3.6); assay type: in vivo, male Lewis rats; conditions: for Wound areas: mg/wound: Wound heal 1 0.01, Wound heal 2 0.1, Wound heal 3 1.0, Aloe vera 20; for wounds larger than wounds on rats receiving buffered saline only: 1.0 mg/wound
Protocol: Thirty male Lewis rats were divided into 5 groups of 6 rats as outlined below in Table 7. Rats were age and weight matched. Rats were permitted rodent diet and water ad libitum throughout the study.
The animals were weighed two days before the start of the trial and weights grouped from lightest to heaviest. Animals were then randomly assigned to groups based on body weights, using 5×5 Latin squares so that group means were as similar as possible.
Approximately 30 minutes before wounding, each animal was given a subcutaneous injection of Temgesic at the base of the neck (0.075 mg/kg body weight). Each animal was anaesthetised using 3% halothane in oxygen. Once the pedal reflexes had been abolished, the animals were shaved from the base of the skull to the hind limb area using electric clippers. The skin on each rat was disinfected using 0.5% chlorhexidine in 70% ethanol. For each animal, the distance from the base of the skull to the top of the hip joint was measured and the wound position marked with a black felt tip pen, 6 cm below the base of the skull along the spinal axis.
Using asceptic techniques a full thickness incision was made at this position using a sterile 12 mm biopsy punch. Any bleeding was removed using cotton swabs. Care was taken that the punch was dry and that no debris (eg., skin, hair) entered the wounds. […] After photography of each wound using a Canon Digital EOS 20D camera with a F2.8 Macro lens, an aliquot of the sample was applied to the wounds on the rats in Groups A, B, D and E using a Gilson Microman CP 100 positive displacement pipette. The biopsy punch was wiped inside with a swab soaked in sterile saline to remove any tissue fluids and/or debris. The punch was then immersed in 70% ethanol before use on the next animal.
For applications and photographs after day 1 the animals were restrained without being anaesthetised.
(§1) Body weights were measured on days 1, 3, 5, 7, 9, 11, 13, 15, 17, 19, 21 and 23 and deviations from original body weights (on day 1) calculated for each animal. On the same days, photographs were taken using a Canon Digital Eos 20D with a F2.8 Macro lens. Photographs were downloaded and wound areas measured using NIH Image J 1.633u software (National Institutes of Health (NIH), Rockville Pike, Bethesda, Md., United States). A laser speckle image was also taken at the same time as each space photograph was taken. Animals were weighed every second day when the photographic record of wound closure rate was also made.
The redness and swelling of each wound were individually scored from visual observation. These were scored on a scale of 0-3 as follows:
Descriptive statistics were evaluated. […] Major analyses were performed on all data points collected. Preliminary analyses were undertaken on control wounds only using t-tests. Univariate ANOVAs were used to assess differences between treatment and controls and samples nested within treatments. A separate ANOVA assessed whether there was a dose response using the treatment samples only. Assumptions for normality were tested using q-q plots on studentized residuals and heterogeneity of variances were tested using Levene's tests. SPSS 11 for Mac OSX was used for assumption testing and statistical analysis.

[3] = Body weight during wound healing assay (Example 3.6); assay type: in vivo, male Lewis rats; conditions: PBS control returned by day 11
Protocol: as §1

[4] = biological target: T1, elastase I; test: Chaperone activity: protection of elastase I from heat denaturation; assay type: biochemical; conditions: boiling water bath for 30 seconds
Protocol: Bovine crystallin fractions were tested for ability to protect the proteases elastase I, trypsin and chymotrypsin from heat denaturation. Briefly, the proteases were heated in a boiling water bath for 30 seconds in the presence or absence of the crystallin fractions.

[5] = test system: rat aortic ring; test: Rat aortic ring angiogenesis assay (Example 4.3); assay type: cell-based, Lewis rat; conditions: second study, 200 μg/mL
Protocol: Four separate studies were carried out to determine the angiogenic effect of crystallin preparations. Each sample was assayed in triplicate. A positive control (VEGF) and a vehicle control containing PBS was also run in triplicate. […] Preliminary statistical significance was assessed with an independent Student t-test at α<0.05. Graphical representation of averages +/− standard errors were determined.
The first study investigated the angiogenic potential of bovine fractions prepared by gel filtration analysis as described in Example 3.2. As described in that Example, the alpha fraction contained αA and αB crystallin, the β H fraction contained all β crystallins, the β L1 fractions contained a sub-fraction of beta crystallins and a high content of βB2 crystallin and beta B3 crystallin and the beta L2 fraction contained only βB2 crystallin and βA3 crystallin.
(§2) The second study investigated the angiogenic potential of purified crystallin proteins. Briefly, βB3 crystallin was prepared by heating (97-99° C. for 3 minutes, supernatant collected by centrifugation) and was essentially homogenous. Alpha A crystallin and αB crystallin samples were prepared by ion exchange chromatography as described above and were also essentially homogenous. The Wound Heal 1-3 preparations were also tested in this study.
The third study investigated the angiogenic potential of ovine crystallin proteins compared to their bovine equivalents. Both bovine and ovine crystallin proteins were purified essentially to homogeneity by RP. HPLC using a C4 column, as described below in Example 5. Homogeneity was confirmed by SDS-PAGE. The effect of elastase I treatment of βB2 crystallin was also investigated by comparing the angiogenic potential of intact βB2 crystallin (i.e. undigested) with elastase I digested βB2 crystallin. Elastase I treatment releases the N-terminal and C-terminal extensions of the crystallin protein leaving a globular protein that is monomeric.
In the final study, ovine βB2 crystallin was tested alone or in combination with indoleamine 2,3-dioxygenase (IDO) and ovine alpha B crystallin was tested alone or in combination with tryptophan dioxygenase (TDO)
Briefly, in each study, a single Lewis rat was euthanised and its aorta transferred to a 15 mL Falcon tube containing 10 mL of MCBD-131 medium and stored on ice. After transferring the aorta to a 92×17 mm petri dish containing 10 mL of ice cold MCDB-131, the outer fatty tissue was removed under an Olympus SZ-60 Dissecting microscope. This was undertaken with fibre optic lamp illumination. The aorta was then cut into sequential rings approximately 2 mm in size. Connective tissue was removed with micro scissors and forceps from the outside of the individual rings. Clean rings were stored in a separate petri dish in sterile MCDB-131 medium. Rings were pre-incubated overnight at 37° C. in an atmosphere of 97% air/3% CO2.
To prepare gel sandwiches, 75 mg of fibrinogen was added to 25 mL MCDB-131 medium and shaken gently on a rocker roller for 5 minutes. 3 ml of MCDB-131/fibrinogen solution was added to a 15 mL Falcon tube, followed by 10 μL of thrombin and quickly mixed. A 0.4 mL volume of this fibrinogen-thrombin solution was added to each well on a 24 well plate, 6 wells at a time. Aortic rings were then placed on the setting gel, pushed gently into the gel and left for 45 minutes. These steps were then repeated so each ring was covered with 0.4 mL of gel. Gels were left to set at room temperature. […] The plate was then placed in incubator (37° C., 97% air/3% CO2).
Culture plate were examined daily for signs of infection (fungal growth or yellowing of media) in the wells using an inverted microscope. The growth of microvessels from their perimeters was also observed. Digital photographs of each well were taken seven days after plating using a Pixera PVC-100C digital camera mounted on an OLYMPUS CK-12 microscope and stored on a Macintosh Computer. […]

[6] = Stability to heat treatment; assay type: physicochemical
Protocol: as §2

T1 sequence (P00772 27-266): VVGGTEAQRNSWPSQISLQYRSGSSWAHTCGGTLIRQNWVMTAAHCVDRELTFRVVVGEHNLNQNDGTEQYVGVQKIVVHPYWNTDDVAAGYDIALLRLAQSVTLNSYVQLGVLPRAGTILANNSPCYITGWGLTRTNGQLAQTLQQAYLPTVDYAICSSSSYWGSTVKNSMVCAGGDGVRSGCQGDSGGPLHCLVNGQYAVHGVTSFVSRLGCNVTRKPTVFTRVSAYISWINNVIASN

B1: Gamma S crystallin: gamma S gel filtration fraction of bovine crystallin extract (protein)
chain: SKAGTKITFFEDKNFQGRHYDSDCDCADFHMYLSRCNSIRVEGGTWAVYERPNFAGYMYILPRGEYPEYQHWMGLNDRLSSCRAVHLSSGGQYKLQIFEKGDFNGQMHETTEDCPSIMEQFHMREVHSCKVLEGAWIFYELPNYRGRQYLLDKKEYRKPVDWGAASPAVQSFRRIVE
elastase I inhibitory activity (in words) [1]: considerable elastase inhibitory activity

B2: Wound Heal 3: bovine αB crystallin, DEAE Sepharose fast flow fractions 37-47; Group D of Example 3 (protein)
chain: MDIAIHHPWIRRPFFPFHSPSRLFDQFFGEHLLESDLFPASTSLSPFYLRPPSFLRAPSWIDTGLSEMRLEKDRFSVNLDVKHFSPEELKVKVLGDVIEVHGKHEERQDEHGFISREFHRKYRIPADVDPLAITSSLSSDGVLTVNGPRKQASGPERTIPITREEKPAVTAAPKK
Wound areas ([2]; Day 1 (=100)): 100
Wound areas ([2]; Day 3): 93
Wound areas ([2]; Day 5): 82
Wound areas ([2]; Day 7): 76
Wound areas ([2]; Day 9): 58
Wound areas ([2]; Day 11): 34
Wound areas ([2]; Day 13): 23
Wound areas ([2]; Day 15): 15
Wound areas ([2]; Day 17): 9
Wound areas ([2]; Day 19): 5
Wound areas ([2]; Day 21): 2.5
Wound areas ([2]; Day 23): 1.4
wounds larger than wounds on rats receiving buffered saline only ([2]; day 3): 8.8%
wounds larger than wounds on rats receiving buffered saline only ([2]; day 7): 7.7%
wounds larger than wounds on rats receiving buffered saline only ([2]; day 11): 28.7%
healing rate compared to Control group (PBS), in words ([2]; rat, in vivo): inhibited the rate of healing
day by which mean body weight had returned to the starting (pre-wounding) weight [3]: ≤ 12 days
chaperone activity: protection of elastase I from heat denaturation (in words) [4]: Chaperone activity was observed
% of Control ([5]; microvessel growth): 93.09%

B3: βB2 crystallin: bovine βB2 crystallin protein (SEQ ID No. 1); in b236 the value is that of Wound Heal 2 (protein)
chain: ASDHQTQAGKPQPLNPKIIIFEQENFQGHSHELNGPCPNLKETGVEKAGSVLVQAGPWVGYEQANCKGEQFVFEKGEYPRWDSWTSSRRTDSLSSLRPIKVDSQEHKITLYENPNFTGKKMEVIDDDVPSFHAHGYQEKVSSVRVQSGTWVGYQYPGYRGLQYLLEKGDYKDSGDFGAPQPQVQSVRRIRDMQWHQRGAFHPSS
modifications: bovine
stability to heat treatment (in words) [6]: unstable to heat treatment
increase in microvessel growth (stimulatory) [5]: 21.83%
